Assay results: PMC8809517, “Cofactor-independent RNA editing by a synthetic S-type PPR protein”

T1: GFP-9S library array, motif 4 ND N98C;D124F (synthetic construct, N98C;D124F)
T1 chain: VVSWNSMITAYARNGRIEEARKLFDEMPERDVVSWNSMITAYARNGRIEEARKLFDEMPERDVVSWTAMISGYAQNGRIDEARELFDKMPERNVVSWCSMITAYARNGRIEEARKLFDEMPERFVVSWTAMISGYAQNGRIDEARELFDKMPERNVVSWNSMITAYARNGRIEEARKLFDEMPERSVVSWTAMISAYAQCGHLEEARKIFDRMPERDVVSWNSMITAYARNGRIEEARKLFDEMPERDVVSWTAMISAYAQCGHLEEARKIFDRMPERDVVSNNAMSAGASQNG

T2: GFP-9S library array, motif 4 ND N98H (synthetic construct, N98H)
T2 chain: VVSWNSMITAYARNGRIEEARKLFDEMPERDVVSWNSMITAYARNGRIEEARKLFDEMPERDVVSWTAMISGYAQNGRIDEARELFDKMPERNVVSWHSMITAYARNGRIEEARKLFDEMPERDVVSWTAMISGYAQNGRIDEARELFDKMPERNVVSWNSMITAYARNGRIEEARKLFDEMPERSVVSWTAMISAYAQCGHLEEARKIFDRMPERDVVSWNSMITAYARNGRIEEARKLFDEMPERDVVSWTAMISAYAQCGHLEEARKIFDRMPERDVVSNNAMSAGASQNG

T3: GFP-9S library array, motif 4 ND N98V;D124S (synthetic construct, N98V;D124S)
T3 chain: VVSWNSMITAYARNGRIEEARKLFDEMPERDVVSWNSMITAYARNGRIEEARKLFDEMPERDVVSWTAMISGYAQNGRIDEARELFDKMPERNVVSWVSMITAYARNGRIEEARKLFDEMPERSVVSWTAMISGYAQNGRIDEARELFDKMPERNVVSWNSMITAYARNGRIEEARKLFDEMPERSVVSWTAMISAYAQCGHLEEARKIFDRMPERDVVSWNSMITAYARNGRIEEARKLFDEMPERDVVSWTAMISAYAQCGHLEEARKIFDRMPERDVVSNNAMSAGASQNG

T4: GFP-9S library array, motif 4 ND N98L;D124C (synthetic construct, N98L;D124C)
T4 chain: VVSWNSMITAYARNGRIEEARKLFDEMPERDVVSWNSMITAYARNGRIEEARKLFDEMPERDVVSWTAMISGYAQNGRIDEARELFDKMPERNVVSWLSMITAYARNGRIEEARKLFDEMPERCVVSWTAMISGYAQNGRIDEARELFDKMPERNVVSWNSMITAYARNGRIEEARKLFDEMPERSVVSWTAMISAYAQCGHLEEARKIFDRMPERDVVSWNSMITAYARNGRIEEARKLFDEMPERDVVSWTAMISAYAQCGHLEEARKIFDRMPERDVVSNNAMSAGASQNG

T5: GFP-9S library array, motif 4 ND D124L (synthetic construct, D124L)
T5 chain: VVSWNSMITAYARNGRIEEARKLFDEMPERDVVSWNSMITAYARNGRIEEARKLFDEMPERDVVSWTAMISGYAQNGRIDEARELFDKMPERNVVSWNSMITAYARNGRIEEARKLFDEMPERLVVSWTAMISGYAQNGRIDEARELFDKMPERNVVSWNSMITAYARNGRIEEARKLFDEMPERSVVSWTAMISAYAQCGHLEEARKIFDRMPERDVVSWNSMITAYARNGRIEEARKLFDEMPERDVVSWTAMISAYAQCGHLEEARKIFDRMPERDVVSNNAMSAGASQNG


What was measured:
Assay in all cases: high-throughput RNA pulldown from lysate on Ni-NTA beads; HRP: 50 mM Tris pH 8, 150 mM NaCl, 1 mM beta-mercaptoethanol, 50 ug/ml BSA, 3 ug/ml yeast RNA, 0.5% heparin; ITC and FP: Tris pH 8, 200 mM KCl, 5% glycerol; MST: 50 mM Tris pH 8, 200 mM NaCl, 1 mM DTT, BSA, heparin, 0.05% Tween 20
Settings in all cases: tags: N-terminal His-eGFP
[1] = biological target: T1, GFP-9S library array, motif 4 ND …
[2] = biological target: T2, GFP-9S library array, motif 4 ND N98H
[3] = biological target: T3, GFP-9S library array, motif 4 ND …
[4] = biological target: T4, GFP-9S library array, motif 4 ND …
[5] = biological target: T5, GFP-9S library array, motif 4 ND D124L

Row | Binder | Kd ([1]; label: 5' Cy5) [nM] | Kd ([2]; label: 5' Cy5) [nM] | Kd ([3]; label: 5' Cy5) [nM] | Kd ([4]; label: 5' Cy5) [nM] | Kd ([5]; label: 5' Cy5) [nM] | Kd ([1]; label: 5' IRDye 800CW) [nM] | Kd ([2]; label: 5' IRDye 800CW) [nM] | Kd ([3]; label: 5' IRDye 800CW) [nM] | Kd ([4]; label: 5' IRDye 800CW) [nM] | Kd ([5]; label: 5' IRDye 800CW) [nM]
1 | AUUACACGUGA (ssRNA) [Cy5-rpoA] | 126 | 144 | 69.5 | 89 | 105 |  |  |  |  | 
2 | AUUAGACGUGA (ssRNA) [Cy5-rpoA-G] | 100 | 26.5 | 50.4 | 70.4 | 131 |  |  |  |  | 
3 | AUUAAACGUGA (ssRNA) [IR-rpoA-A] |  |  |  |  |  | 203 | 465 | 26.8 | 98.7 | 291
4 | AUUAUACGUGA (ssRNA) [IR-rpoA-U] |  |  |  |  |  | 317 | 65.7 | 50.3 | 60.2 | 96.6
